The values that follow come from US20130108613.

Data set [1] deals with monomeric synthetic human Aβ1-42 peptide.
Data set [2] deals with oligomeric synthetic human Aβ1-42 preparation.

B1: recombinant NIa (nuclear inclusion a) protease of Turnip mosaic virus (TuMV), purified from E. coli (protein)
chain: SNSMFRGLRDYNPISNNICHLTNVSDGASNSLYGVGFGPLILTNRHLFERNNGELVIKSRHGEFVIKNTTQLHLLPIPDRDLLLIRLPKDIPPFPQKLGFRQPEKGERICMVGSNFQTKSITSVVSETSTIMPVENSQFWKHWISTKDGQCGSPMVSTKDGKILGLHSLANFQNSINYFAAFPDDFAEKYLHTIEAHEWVKHWKYNTSAISWGSLNIQASQPSGLFKVSKLISDLDSTAVYAQ
As to B1, the “reduction of monomeric Aβ level, densitometry of Western blot (6E10), 3 hrs at 25 °C, without NEM” value in data set [1] was “NIa reduced Aβ levels by 64% in the absence of NEM”. In addition, in data set [2], the “oligomeric Aβ level with NIa pre-incubated with NEM, Western blot (6E10)” value was “This NIa-mediated reduction of oligomeric Aβ was significantly blocked by NEM” and the “oligomeric Aβ remaining after 3 hrs with NIa, densitometry of Western blot (6E10), relative to Aβ only” value is on record as “only 19% of oligomeric Aβ remained”.
